Source: patent publication US20040024185A1

What was measured:
Assay in all cases: cell-based or functional assay
[1] = biological target: T1, NF-ATc expressed from an expression construct in HepG2 cells
T1 sequence (O95644 1-943, species assumed, looked up): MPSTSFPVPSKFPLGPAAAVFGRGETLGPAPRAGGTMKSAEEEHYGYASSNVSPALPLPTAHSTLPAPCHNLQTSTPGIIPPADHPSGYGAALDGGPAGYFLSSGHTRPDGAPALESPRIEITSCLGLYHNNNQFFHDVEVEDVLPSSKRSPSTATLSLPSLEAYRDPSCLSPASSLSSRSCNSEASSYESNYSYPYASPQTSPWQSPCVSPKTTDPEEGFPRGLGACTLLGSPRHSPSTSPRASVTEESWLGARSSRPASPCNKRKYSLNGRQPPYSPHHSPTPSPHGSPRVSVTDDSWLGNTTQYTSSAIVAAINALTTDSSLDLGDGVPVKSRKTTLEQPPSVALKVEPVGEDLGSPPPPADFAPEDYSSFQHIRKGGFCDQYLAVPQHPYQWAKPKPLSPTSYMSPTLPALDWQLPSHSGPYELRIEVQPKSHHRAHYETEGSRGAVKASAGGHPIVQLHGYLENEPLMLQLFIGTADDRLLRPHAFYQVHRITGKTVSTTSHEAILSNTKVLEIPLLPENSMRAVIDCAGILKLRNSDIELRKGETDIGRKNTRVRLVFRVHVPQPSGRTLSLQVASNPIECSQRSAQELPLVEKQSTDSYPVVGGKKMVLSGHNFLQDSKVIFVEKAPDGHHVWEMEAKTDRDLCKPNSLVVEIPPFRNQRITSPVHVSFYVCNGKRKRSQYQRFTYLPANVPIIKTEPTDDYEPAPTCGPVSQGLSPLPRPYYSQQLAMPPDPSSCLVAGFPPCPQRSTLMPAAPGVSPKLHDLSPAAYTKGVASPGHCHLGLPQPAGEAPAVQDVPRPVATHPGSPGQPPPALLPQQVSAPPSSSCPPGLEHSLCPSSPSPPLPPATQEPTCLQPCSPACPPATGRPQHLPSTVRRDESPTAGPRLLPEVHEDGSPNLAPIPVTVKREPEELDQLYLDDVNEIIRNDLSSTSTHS

[2] = biological target: T2, NF-ATp expressed from an NF-ATp expression plasmid in HepG2 cells
T2 sequence (Q13469 1-925, species assumed, looked up): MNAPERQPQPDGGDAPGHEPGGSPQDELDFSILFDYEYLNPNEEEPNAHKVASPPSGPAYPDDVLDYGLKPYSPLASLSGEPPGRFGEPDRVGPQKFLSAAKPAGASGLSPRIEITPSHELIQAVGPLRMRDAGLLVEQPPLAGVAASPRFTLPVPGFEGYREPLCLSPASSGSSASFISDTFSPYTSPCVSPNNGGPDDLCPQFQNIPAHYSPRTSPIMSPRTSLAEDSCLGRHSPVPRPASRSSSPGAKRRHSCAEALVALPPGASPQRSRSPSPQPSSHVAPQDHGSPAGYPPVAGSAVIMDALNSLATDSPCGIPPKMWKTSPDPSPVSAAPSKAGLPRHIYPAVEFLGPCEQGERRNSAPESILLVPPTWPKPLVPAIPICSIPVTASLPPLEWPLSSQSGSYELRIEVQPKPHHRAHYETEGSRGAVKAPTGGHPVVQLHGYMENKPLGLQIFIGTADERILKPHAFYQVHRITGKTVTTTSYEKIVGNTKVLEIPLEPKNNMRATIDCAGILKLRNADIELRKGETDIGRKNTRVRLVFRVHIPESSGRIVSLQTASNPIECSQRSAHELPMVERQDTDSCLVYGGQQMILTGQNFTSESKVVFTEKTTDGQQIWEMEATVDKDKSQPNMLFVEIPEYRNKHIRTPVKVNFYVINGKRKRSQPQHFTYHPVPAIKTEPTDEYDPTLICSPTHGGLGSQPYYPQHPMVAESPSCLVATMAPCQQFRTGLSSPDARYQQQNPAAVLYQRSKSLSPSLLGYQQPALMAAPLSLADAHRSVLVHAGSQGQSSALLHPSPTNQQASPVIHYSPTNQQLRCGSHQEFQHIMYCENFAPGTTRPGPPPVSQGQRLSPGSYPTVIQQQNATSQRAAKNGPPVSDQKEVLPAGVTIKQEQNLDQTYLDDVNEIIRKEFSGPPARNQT

[3] = biological target: T3, NF-AT3 expressed from an expression construct in HepG2 cells
T3 sequence (Q14934 1-902, species assumed, looked up): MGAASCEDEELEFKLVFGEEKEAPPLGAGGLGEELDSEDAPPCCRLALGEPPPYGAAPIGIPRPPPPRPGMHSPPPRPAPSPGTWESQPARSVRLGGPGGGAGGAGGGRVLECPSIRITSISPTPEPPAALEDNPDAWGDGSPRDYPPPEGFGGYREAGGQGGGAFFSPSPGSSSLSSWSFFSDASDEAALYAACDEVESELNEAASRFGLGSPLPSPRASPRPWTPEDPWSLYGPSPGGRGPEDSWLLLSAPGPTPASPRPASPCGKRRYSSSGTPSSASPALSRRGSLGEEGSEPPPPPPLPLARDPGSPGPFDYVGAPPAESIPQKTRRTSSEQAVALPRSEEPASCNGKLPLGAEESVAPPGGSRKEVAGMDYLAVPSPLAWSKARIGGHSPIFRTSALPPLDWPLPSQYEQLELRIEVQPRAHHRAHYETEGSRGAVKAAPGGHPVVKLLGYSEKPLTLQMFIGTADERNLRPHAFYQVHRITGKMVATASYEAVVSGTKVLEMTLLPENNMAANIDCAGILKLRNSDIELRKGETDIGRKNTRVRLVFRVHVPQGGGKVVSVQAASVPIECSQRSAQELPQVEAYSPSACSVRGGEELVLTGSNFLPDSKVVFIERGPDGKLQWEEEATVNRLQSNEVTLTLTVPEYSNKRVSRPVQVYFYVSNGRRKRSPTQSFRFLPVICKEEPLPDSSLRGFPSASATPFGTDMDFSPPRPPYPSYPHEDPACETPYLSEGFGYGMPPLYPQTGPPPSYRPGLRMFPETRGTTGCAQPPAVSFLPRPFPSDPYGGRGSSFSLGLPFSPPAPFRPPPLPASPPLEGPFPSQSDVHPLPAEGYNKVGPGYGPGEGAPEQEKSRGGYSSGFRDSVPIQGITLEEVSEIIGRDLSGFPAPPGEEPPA

[4] = biological target: T4, NF-AT4 expressed from an expression construct
T4 sequence (Q12968 2-1075, species assumed, looked up): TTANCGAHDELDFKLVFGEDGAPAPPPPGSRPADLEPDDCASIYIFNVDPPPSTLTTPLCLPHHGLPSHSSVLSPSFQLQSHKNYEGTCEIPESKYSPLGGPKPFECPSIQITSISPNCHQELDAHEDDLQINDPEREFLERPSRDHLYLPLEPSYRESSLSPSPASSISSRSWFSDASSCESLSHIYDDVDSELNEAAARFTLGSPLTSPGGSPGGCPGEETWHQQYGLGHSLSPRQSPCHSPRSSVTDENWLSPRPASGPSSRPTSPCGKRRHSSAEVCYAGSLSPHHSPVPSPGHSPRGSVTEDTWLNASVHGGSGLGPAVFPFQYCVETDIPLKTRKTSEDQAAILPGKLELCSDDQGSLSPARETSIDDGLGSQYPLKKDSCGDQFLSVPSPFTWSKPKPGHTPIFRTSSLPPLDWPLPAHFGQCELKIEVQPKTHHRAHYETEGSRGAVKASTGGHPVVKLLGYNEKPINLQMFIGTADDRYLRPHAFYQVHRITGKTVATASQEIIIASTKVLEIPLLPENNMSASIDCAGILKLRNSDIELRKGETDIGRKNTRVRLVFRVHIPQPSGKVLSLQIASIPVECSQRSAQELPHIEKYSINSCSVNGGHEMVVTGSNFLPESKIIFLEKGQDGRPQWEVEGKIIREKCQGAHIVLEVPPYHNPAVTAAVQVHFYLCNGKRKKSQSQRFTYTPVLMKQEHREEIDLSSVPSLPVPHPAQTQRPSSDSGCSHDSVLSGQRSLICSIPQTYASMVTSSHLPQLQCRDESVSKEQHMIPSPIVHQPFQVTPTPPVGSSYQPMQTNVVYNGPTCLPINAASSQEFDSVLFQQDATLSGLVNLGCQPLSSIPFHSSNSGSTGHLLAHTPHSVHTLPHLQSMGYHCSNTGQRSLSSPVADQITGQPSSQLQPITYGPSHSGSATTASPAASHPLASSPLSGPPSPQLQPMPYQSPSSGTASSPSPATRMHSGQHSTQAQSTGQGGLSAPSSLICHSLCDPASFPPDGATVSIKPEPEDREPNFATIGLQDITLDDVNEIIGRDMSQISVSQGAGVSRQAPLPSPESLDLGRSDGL

B1: NIP45 expressed from a NIP45 expression plasmid (protein)
chain: MAEPLRGRGPRSRGGRGARRARGARGRCPRARQSPARLIPDTVLVDLVSDSDEEVLEVADPVEVPVARLPAPAKPEQDSDSDSEGAAEGPAGAPRTLVRRRRRRLLDPGEAPVVPVYSGKVQSSLNLIPDNSSLLKLCPSEPEDEADLTNSGSSPSEDDALPSGSPWRKKLRKKCEKEEKKMEEFPDQDISPLPQPSSRNKSRKHTEALQKLREVNKRLQDLRSCLSPKQHQSPALQSTDDEVVLVEGPVLPQSSRLFTLKIRCRADLVRLPVRMSEPLQNVVDHMANHLGVSPNRILLLFGESELSPTATPSTLKLGVADIIDCVVLASSSEATETSQELRLRVQGKEKHQMLEISLSPDSPLKVLMSHYEEAMGLSGHKLSFFFDGTKLSGKELPADLGLESGDLIEVWG
transactivation of a 3X NF-AT-CAT reporter in HepG2 cells [1]: 4 fold
CAT activity of a 3X NF-AT-CAT reporter in HepG2 cells, relative to NF-ATp alone [2]: 4 to 5 fold
CAT activity of a 3X NF-AT-CAT reporter in HepG2 cells, relative to vector alone [2]: 25 to 30 fold
transactivation of a 3X NF-AT-CAT reporter in HepG2 cells [3]: 3 fold
transactivation of a 3X NF-AT-CAT reporter in HepG2 cells [4]: 2 fold
